According to publication PMC3348139:

Columns and labels:
DNase-I = DNase-I (UniProt P00639)
[1] = biological target: A230V human cardiac actin (A230V ACTC) (human); assay: pyrene-actin polymerisation assay (critical concentration); actin in G-buffer mixed with 2.5% pyrene-labeled alpha-skeletal actin; polymerization buffer 25 mM Tris pH 8.0, 50 mM KCl, 1 mM EGTA, 2 mM MgCl2, 0.1 mM ATP; Cc is the x-intercept of the change in pyrene fluorescence against actin concentration; monomer to filament
[2] = biological target: Y166C human cardiac actin (Y166C ACTC) (human); assay: as above
[3] = biological target: E361G human cardiac actin (E361G ACTC) (human); assay: as above
[4] = biological target: M305L human cardiac actin (M305L ACTC) (human); assay: as above
[5] = biological target: E99K human cardiac actin (E99K ACTC) (human); assay: as above
[6] = biological target: wildtype human cardiac actin (WT ACTC) (human) (UniProt P68032); assay: as above
[7] = biological target: A331P human cardiac actin (A331P ACTC) (human); assay: as above
[8] = biological target: R312H human cardiac actin (R312H ACTC) (human); assay: as above

Chain of DNase-I (P00639 23-282): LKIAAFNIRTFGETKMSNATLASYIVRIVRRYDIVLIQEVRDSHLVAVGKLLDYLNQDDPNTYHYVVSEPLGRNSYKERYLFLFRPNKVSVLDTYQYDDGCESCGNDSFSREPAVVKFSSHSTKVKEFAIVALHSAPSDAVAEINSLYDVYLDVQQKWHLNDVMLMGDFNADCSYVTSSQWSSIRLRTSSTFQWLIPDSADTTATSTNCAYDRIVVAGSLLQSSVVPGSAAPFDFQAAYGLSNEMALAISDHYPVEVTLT

A230V human cardiac actin (A230V ACTC) (natural protein)
IC50 of inhibition of DNase-I activity (A260 with salmon sperm DNA; 0 to 100 nM ACTC, 15.4 nM DNase-I) (DNase-I): 15.3 nM
Cc (critical concentration of polymerisation) [1]: 2.11 µM

Y166C human cardiac actin (Y166C ACTC) (natural protein)
IC50 of inhibition of DNase-I activity (A260 with salmon sperm DNA; 0 to 100 nM ACTC, 15.4 nM DNase-I) (DNase-I): 24.6 nM
Cc (critical concentration of polymerisation) [2]: 2.67 µM

E361G human cardiac actin (E361G ACTC) (natural protein)
IC50 of inhibition of DNase-I activity (A260 with salmon sperm DNA; 0 to 100 nM ACTC, 15.4 nM DNase-I) (DNase-I): 16.8 nM
Cc (critical concentration of polymerisation) [3]: 0.58 µM

M305L human cardiac actin (M305L ACTC) (natural protein)
IC50 of inhibition of DNase-I activity (A260 with salmon sperm DNA; 0 to 100 nM ACTC, 15.4 nM DNase-I) (DNase-I): 17 nM
Cc (critical concentration of polymerisation) [4]: 2.21 µM

E99K human cardiac actin (E99K ACTC) (natural protein)
IC50 of inhibition of DNase-I activity (A260 with salmon sperm DNA; 0 to 100 nM ACTC, 15.4 nM DNase-I) (DNase-I): 25.7 nM
Cc (critical concentration of polymerisation) [5]: 1.67 µM

wildtype human cardiac actin (WT ACTC) (from UniProt P68032 1-377) (natural protein)
IC50 of inhibition of DNase-I activity (A260 with salmon sperm DNA; 0 to 100 nM ACTC, 15.4 nM DNase-I) (DNase-I): 13.2 nM
Cc (critical concentration of polymerisation) [6]: 0.28 µM

A331P human cardiac actin (A331P ACTC) (natural protein)
IC50 of inhibition of DNase-I activity (A260 with salmon sperm DNA; 0 to 100 nM ACTC, 15.4 nM DNase-I) (DNase-I): 26 nM
Cc (critical concentration of polymerisation) [7]: 2.95 µM

R312H human cardiac actin (R312H ACTC) (natural protein)
IC50 of inhibition of DNase-I activity (A260 with salmon sperm DNA; 0 to 100 nM ACTC, 15.4 nM DNase-I); the value rose on later days after purification (DNase-I): 36.7 nM
Cc (critical concentration of polymerisation) [8]: 4.75 µM
